This is an account of results in publication PMC11794977, “Inhibitory Potential and Binding Thermodynamics of Scyllatoxin‐Based BH3 Domain Mimetics Targeting Repressor BCL2 Proteins” (Journal of Molecular Recognition, 2025).

Test [1] addresses T1, Bcl‐2‐ΔTM (recombinant His‐tagged Bcl‐2 without its transmembrane domain).
T1 construct: also called Bcl‐2 (proper); Bcl‐2‐ΔTM proteins
Put plainly: fluorescence polarisation; competition: 100 nM Bcl‐2‐ΔTM and 25 nM ^FluBax‐BH3^ΔB pre‐incubated 1 h, then acetylated peptide (100 μM to 2.3 pM) added for 1 h; binding buffer (50 mM Tris, 100 mM NaCl, pH 8.0); ambient temperature; triplicate. To be noted: both partners purified.

Test [2] addresses T1, Bcl‐2‐ΔTM (recombinant His‐tagged Bcl‐2 …). In words: ITC; 200 μM acetylated peptide injected into 20 μM Bcl‐2‐ΔTM in the cell; binding buffer (50 mM Tris, 100 mM NaCl, pH 8.0); 25°C; one‐site model; Kd as reciprocal of Ka; triplicate. The conditions noted are these: both partners purified.

B1: ^AcBax‐BH3^ΔB (peptide)
chain: STKKLSEXLKRIGDELDSNM
HELM: PEPTIDE1{[ac].S.T.K.K.L.S.E.[Abu].L.K.R.I.G.D.E.L.D.S.N.M.[am]}$$$$V2.0
SMILES: CC[C@H](NC(=O)[C@H](CCC(=O)O)NC(=O)[C@H](CO)NC(=O)[C@H](CC(C)C)NC(=O)[C@H](CCCCN)NC(=O)[C@H](CCCCN)NC(=O)[C@@H](NC(=O)[C@H](CO)NC(C)=O)[C@@H](C)O)C(=O)N[C@@H](CC(C)C)C(=O)N[C@@H](CCCCN)C(=O)N[C@@H](CCCNC(=N)N)C(=O)N[C@H](C(=O)NCC(=O)N[C@@H](CC(=O)O)C(=O)N[C@@H](CCC(=O)O)C(=O)N[C@@H](CC(C)C)C(=O)N[C@@H](CC(=O)O)C(=O)N[C@@H](CO)C(=O)N[C@@H](CC(N)=O)C(=O)N[C@@H](CCSC)C(N)=O)[C@@H](C)CC
Regarding B1, in test [1], the IC50 stood at 141 nM. For the same molecule, in test [2], the dissociation constant (Kd) turned out to be 191 nM, the dH is -5.43 kcal/mol and the “stoichiometry N” value is 0.93.
